Numbering of substitutions follows the chain as printed.
B1: DOM7r-31-14 (VHH)
VHH: EVQLLESGGGLVQPGGSLRLSCTASGFTFRHYRMGWVRQAPGKGLEWVSWIRPDGTFTYYADSVKGRFTISRDNSKNTLYLQMNSLRAEDTAVYYCAKSYMADRFDYWGQGTLVTVSS
B2: DOM7h-98-4 (VHH)
VHH: EVQLLESGGGLVQPGGSLRLSCAASGFTFGNYAMAWVRQAPGKGLEWVSSIDMVGIKTYYADSVKGRFTNSRDNSKNTLYLQMNSLRAEDTAVYYCARGFRIFDYWGQGTLVTVSS
B3: DOM7r-201 (VHH)
VHH: EVQLLESGGGLVQPGGSLRLSCAASGFTFNHYTMGWVRQAPGKGLEWVSLIHPSGTVIYYADSVKGRFTISRDNSKNTLYLQMNSLRAEDTAVYYCAKWSSRAFDYWGQGTLVTVSS
B4: DOM7r-36-2 (VHH)
VHH: B3 VHH with L45R, I58T
B5: DOM7r-36-8 (VHH)
VHH: B3 VHH with K98R
B6: DOM7r-92-4 (VHH)
VHH: EVQLLESGGGLVQPGGSLRLSCAASGFTFDTSSMLWVRQAPGKGLEWVSVIHQSGTPTYYADSVKGRFTISRDNSKNTLYLQMNSLRAEDTAVYYCAKFPSTHGKFDYWGQGTLVTVSS
B7: DOM7h-112 (VHH)
VHH: EVQLLESGGGLVQPGGSLRLSCAASGFTFGGYVMGWVRQAPGKGLEWVSAINRFGSSTYYADSVKGRFTISRDNSKNTLYLQMNSLRAEDTAVYYCAKGSLRHFDYWGQGTLVTVSS
notes: human VH immunoglobulin single variable domain (dAb, AlbudAb), not camelid
B8: DOM7r-35 (VHH)
VHH: EVQLLESGGGLVQPGGSLRLSCAASGFTFSLYRMVWVRQAPGKGLEWVSMISQFGNQTYYADSVKGRFTISRDNSKNTLYLQMNSLRAEDTAVYYCAKVRSWDQTGGRRTFDYWGQGTLVTVSS
notes: human VH dAb (AlbudAb); propensity to dimerise by MALLS
B9: DOM7r-31 (VHH)
VHH: B1 VHH with A102G
notes: human VH dAb (AlbudAb)
B10: DOM7h-98 (VHH)
VHH: B2 VHH with N70I, R98K
notes: human VH dAb (AlbudAb)
B11: DOM7r-38 (VHH)
VHH: EVQLLESGGGLVQPGGSLRLSCAASGFTFDNNAMGWVRQAPGKGLEWVSTISANGNATYYADSVKGRFTISRDNSKDTLYLQMNSLRAEDTAVYYCAKGFRRFDYWGQGTLVTVSS
notes: human VH dAb (AlbudAb)
B12: DOM7r-36 (VHH)
VHH: B3 VHH with I58T
notes: human VH dAb (AlbudAb)
B13: DOM7r-29 (VHH)
VHH: EVQLLESGGGLVQPGGSLRLSCAASGFTFKDYDMTWVRQAPGKGLEWVSMISSSGLWTYYADSVKGRFTISRDNSKNTLYLQMNSLRAEDTAVYYCAKGFRLFPRTFDYWGQGTLVTVSS
notes: human VH dAb (AlbudAb)

biological target: T1, rat serum albumin (rat, UniProt P02770 25-608); test: SPR (BIAcore), eight-point dilution kinetics; conditions: not given
T1 construct: also called RSA

Row | Binder | Kd [nM]
1 | B1 | 46
2 | B2 | 580
3 | B3 | 240
4 | B4 | 190
5 | B5 | 210
6 | B6 | 260

biological target: T2, Cynomolgus monkey serum albumin (Cynomolgus monkey, UniProt A2V9Z4 25-608); test: SPR (BIAcore), eight-point dilution kinetics; conditions: not given
T2 construct: also called CSA; cyno serum albumin

Row | Binder | Kd [nM]
7 | B2 | 3600
8 | B3 | 58
9 | B4 | 180
10 | B5 | 92
11 | B6 | 98

biological target: T3, mouse serum albumin (mouse, UniProt P07724 25-608); test: SPR (BIAcore), eight-point dilution kinetics; conditions: not given
T3 construct: also called MSA

Row | Binder | Kd [nM]
12 | B1 | 6
13 | B2 | 810
14 | B3 | 280
15 | B4 | 520
16 | B5 | 520
17 | B6 | 110

biological target: T4, human serum albumin (human, UniProt P02768 25-609); test: SPR (BIAcore), eight-point dilution kinetics; conditions: not given
T4 construct: also called HSA; human SA

Row | Binder | Kd [nM]
18 | B1 | 58
19 | B2 | 2000
20 | B3 | 60
21 | B4 | 150
22 | B5 | 67
23 | B6 | 130

biological target: T4, human serum albumin; test: SPR (Biacore), cross-reactivity against four serum albumins; conditions: not given

Row | Binder | binding result
24 | B7 | no binding

biological target: T1, rat serum albumin; test: SPR (Biacore), cross-reactivity; conditions: not given

Row | Binder | binding result
25 | B8 | binds
26 | B9 | binds
27 | B10 | binds
28 | B11 | binds
29 | B12 | binds
30 | B13 | binds
31 | B7 | binds

biological target: T2, Cynomolgus monkey serum albumin; test: SPR (Biacore), cross-reactivity; conditions: not given

Row | Binder | binding result
32 | B8 | binds
33 | B9 | binds
34 | B10 | binds
35 | B11 | binds
36 | B12 | binds
37 | B13 | binds
38 | B7 | binds

biological target: T3, mouse serum albumin; test: SPR (Biacore), cross-reactivity; conditions: not given

Row | Binder | binding result
39 | B8 | binds
40 | B9 | binds
41 | B10 | binds
42 | B11 | binds
43 | B12 | binds
44 | B13 | binds
45 | B7 | binds

biological target: T4, human serum albumin; test: SPR (Biacore), cross-reactivity; conditions: not given

Row | Binder | binding result
46 | B8 | binds
47 | B9 | binds
48 | B10 | binds
49 | B11 | binds
50 | B12 | binds
51 | B13 | binds

Biological target: T5, Cynomolgus monkey serum albumin (Cynomolgus monkey), A2V9Z4
T5 chain: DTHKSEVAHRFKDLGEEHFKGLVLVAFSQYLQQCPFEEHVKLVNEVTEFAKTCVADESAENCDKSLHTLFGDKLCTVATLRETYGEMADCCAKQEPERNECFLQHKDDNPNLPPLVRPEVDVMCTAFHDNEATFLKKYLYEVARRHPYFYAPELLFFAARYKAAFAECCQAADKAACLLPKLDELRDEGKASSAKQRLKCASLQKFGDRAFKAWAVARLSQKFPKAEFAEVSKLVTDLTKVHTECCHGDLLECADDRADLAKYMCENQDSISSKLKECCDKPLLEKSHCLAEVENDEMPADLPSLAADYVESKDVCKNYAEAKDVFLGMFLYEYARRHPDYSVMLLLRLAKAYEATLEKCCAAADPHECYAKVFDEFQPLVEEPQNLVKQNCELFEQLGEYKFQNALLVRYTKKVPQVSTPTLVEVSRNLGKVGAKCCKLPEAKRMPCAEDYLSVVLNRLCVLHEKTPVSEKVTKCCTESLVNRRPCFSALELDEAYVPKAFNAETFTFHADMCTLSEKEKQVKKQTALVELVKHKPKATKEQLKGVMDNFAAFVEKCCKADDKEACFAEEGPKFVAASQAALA
Test: SPR (BIAcore), eight-point dilution kinetics
Conditions: remark: other sources report otherwise

Row | Binder | Kd [nM]
52 | B1 | 31000

Reference: patent US20120114647A1 (GlaxoSmithKline, published 2012)
